In paper PMC7414962, “Screening and Evaluation of New Hydroxymethylfurfural Oxidases for Furandicarboxylic Acid Production” (Applied and Environmental Microbiology, 2020):

What was measured:
MetspHMFO^His = target: T1, MetspHMFO^His (Methylovorus sp. MP688, UniProt E4QP00); test: UV-visible flavin spectrum; FAD release on heat denaturation; type: binding; details: 50 mM Tris-HCl, pH 7.0, 25°C; co-purified prosthetic group
T1 construct: gene MPQ_0130
T1 sequence (E4QP00 1-531): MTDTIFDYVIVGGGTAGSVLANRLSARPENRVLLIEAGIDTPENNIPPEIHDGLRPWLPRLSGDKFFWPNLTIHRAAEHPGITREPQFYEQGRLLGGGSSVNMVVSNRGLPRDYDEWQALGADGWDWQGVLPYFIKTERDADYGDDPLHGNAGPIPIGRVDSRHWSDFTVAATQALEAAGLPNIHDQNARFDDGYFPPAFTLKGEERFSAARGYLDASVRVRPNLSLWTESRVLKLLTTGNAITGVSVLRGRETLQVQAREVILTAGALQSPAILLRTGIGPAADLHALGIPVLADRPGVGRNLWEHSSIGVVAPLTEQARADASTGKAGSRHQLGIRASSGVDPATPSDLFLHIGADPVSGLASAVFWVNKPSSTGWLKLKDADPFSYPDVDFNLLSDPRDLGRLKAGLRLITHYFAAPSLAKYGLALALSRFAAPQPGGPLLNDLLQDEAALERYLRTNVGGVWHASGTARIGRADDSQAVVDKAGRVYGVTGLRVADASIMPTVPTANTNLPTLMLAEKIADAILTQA

MetspHMFO = target: T2, MetspHMFO (Methylovorus sp. MP688, UniProt E4QP00); test: as above; type: binding; details: 50 mM Tris-HCl, pH 7.0, 25°C; co-purified prosthetic group
T2 construct: gene MPQ_0130
T2 sequence (E4QP00 1-531): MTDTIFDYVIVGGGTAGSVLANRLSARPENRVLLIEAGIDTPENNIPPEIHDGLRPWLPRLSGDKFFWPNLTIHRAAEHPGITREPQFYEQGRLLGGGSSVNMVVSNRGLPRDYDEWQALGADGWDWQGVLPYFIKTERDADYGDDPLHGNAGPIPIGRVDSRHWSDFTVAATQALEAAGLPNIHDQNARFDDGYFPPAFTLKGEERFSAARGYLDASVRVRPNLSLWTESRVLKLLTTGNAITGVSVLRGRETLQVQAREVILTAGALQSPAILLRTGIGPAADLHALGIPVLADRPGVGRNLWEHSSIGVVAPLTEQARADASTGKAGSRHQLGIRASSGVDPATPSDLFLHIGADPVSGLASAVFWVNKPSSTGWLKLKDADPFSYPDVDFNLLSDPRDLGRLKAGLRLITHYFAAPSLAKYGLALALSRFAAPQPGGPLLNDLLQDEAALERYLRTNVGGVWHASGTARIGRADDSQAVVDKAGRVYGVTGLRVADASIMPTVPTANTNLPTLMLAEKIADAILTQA

PseniHMFO^His = target: T3, PseniHMFO^His (Pseudomonas nitroreducens, UniProt A0A6G6IPZ6); test: as above; type: binding; details: 50 mM Tris-HCl, pH 7.0, 25°C; co-purified prosthetic group
T3 construct: gene G5B91_01695
T3 sequence (A0A6G6IPZ6 1-531): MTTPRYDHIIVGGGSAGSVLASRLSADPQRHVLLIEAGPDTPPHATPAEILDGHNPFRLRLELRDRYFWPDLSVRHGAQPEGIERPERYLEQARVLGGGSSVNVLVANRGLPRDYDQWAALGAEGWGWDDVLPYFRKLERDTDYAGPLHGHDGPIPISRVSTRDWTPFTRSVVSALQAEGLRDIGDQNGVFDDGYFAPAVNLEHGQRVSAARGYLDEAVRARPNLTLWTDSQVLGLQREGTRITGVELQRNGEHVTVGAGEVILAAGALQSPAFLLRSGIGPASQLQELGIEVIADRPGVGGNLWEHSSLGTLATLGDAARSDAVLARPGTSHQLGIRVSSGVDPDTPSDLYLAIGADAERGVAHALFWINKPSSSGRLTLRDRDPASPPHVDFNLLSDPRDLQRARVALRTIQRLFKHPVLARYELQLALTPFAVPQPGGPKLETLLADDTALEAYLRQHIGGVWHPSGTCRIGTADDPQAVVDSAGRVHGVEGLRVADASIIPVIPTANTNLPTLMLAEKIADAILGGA

PsespHMFO = target: T4, PsespHMFO (Pseudomonas sp. 11/12A, UniProt Z9N8I9PR93); test: as above; type: binding; details: 50 mM Tris-HCl, pH 7.0, 25°C; co-purified prosthetic group
T4 sequence (Z9N8I9PR93 1-530): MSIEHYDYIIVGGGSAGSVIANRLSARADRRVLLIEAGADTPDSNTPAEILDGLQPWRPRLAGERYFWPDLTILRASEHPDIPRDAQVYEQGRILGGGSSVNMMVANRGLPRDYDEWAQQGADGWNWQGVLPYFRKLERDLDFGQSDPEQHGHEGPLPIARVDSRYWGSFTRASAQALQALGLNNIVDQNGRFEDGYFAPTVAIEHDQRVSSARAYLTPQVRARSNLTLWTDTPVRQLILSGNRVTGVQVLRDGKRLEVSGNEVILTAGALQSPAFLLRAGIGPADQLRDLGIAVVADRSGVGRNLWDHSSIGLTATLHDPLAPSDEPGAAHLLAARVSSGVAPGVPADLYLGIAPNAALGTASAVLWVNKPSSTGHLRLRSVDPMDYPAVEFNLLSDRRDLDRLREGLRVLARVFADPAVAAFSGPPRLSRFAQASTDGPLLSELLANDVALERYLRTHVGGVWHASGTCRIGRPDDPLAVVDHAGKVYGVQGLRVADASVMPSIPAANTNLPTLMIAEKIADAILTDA

[1] = substrate: O=Cc1ccc(C=O)o1; test: HRP/AmplexRed-coupled H2O2 assay; type: biochemical, Pseudomonas nitroreducens; details: 50 mM Tris-HCl, pH 7.0, 25°C, O2
Text: (§1) HRP/AmplexRed-coupled H2O2 assay on PseniHMFO^His

[2] = substrate: O=Cc1ccc(CO)o1; test: HRP/AmplexRed-coupled H2O2 assay; type: biochemical, Pseudomonas nitroreducens; details: 50 mM Tris-HCl, pH 7.0, 25°C, O2
Text: as §1

[3] = substrate: COc1cc(CO)ccc1O; test: steady-state, direct spectrophotometry of vanillin; type: biochemical, Pseudomonas nitroreducens; details: 50 mM Tris-HCl, pH 10, 25°C, O2
Text: steady-state, direct spectrophotometry of vanillin on PseniHMFO^His

[4] = substrate: O=Cc1ccc(C=O)o1; test: HRP/AmplexRed-coupled H2O2 assay; type: biochemical, Methylovorus sp. MP688; details: 50 mM Tris-HCl, pH 7.0, 25°C, O2
Text: HRP/AmplexRed-coupled H2O2 assay on MetspHMFO

[5] = substrate: COc1cc(CO)ccc1O; test: steady-state, direct spectrophotometry of vanillin; type: biochemical, Methylovorus sp. MP688; details: 50 mM Tris-HCl, pH 7.0, 25°C, O2
Text: steady-state, direct spectrophotometry of vanillin on MetspHMFO

purified protein = substrate: O=Cc1ccc(CO)o1; test: purified protein; details: 50 mM Tris-HCl, pH 7.0, 25°C, O2
[6] = substrate: O=Cc1ccc(C=O)o1; test: HRP/AmplexRed-coupled H2O2 assay; type: biochemical, Methylovorus sp. MP688; details: 50 mM Tris-HCl, pH 7.0, 25°C, O2; remark: listed apart in the source
Text: HRP/AmplexRed-coupled H2O2 assay on MetspHMFO^His

[7] = substrate: COc1cc(CO)ccc1O; test: steady-state, direct spectrophotometry of vanillin; type: biochemical, Methylovorus sp. MP688; details: 50 mM Tris-HCl, pH 7.0, 25°C, O2; remark: listed apart in the source
Text: steady-state, direct spectrophotometry of vanillin on MetspHMFO^His

## Cc1cc2nc3c(=O)[nH]c(=O)nc-3n(C[C@H](O)[C@H](O)[C@H](O)COP(=O)(O)OP(=O)(O)OC[C@H]3O[C@@H](n4cnc5c(N)ncnc54)[C@H](O)[C@@H]3O)c2cc1C [FAD]
MetspHMFO^His
  UV-visible flavin spectrum; FAD release on heat denaturation: The enzymes showed UV-visible spectra characteristic of FAD-containing proteins
MetspHMFO
  UV-visible flavin spectrum; FAD release on heat denaturation: The enzymes showed UV-visible spectra characteristic of FAD-containing proteins
PseniHMFO^His
  UV-visible flavin spectrum; FAD release on heat denaturation: The enzymes showed UV-visible spectra characteristic of FAD-containing proteins
PsespHMFO
  UV-visible flavin spectrum; FAD release on heat denaturation: The enzymes showed UV-visible spectra characteristic of FAD-containing proteins

B1: PseniHMFO^His (Pseudomonas nitroreducens) (protein)
chain: MTTPRYDHIIVGGGSAGSVLASRLSADPQRHVLLIEAGPDTPPHATPAEILDGHNPFRLRLELRDRYFWPDLSVRHGAQPEGIERPERYLEQARVLGGGSSVNVLVANRGLPRDYDQWAALGAEGWGWDDVLPYFRKLERDTDYAGPLHGHDGPIPISRVSTRDWTPFTRSVVSALQAEGLRDIGDQNGVFDDGYFAPAVNLEHGQRVSAARGYLDEAVRARPNLTLWTDSQVLGLQREGTRITGVELQRNGEHVTVGAGEVILAAGALQSPAFLLRSGIGPASQLQELGIEVIADRPGVGGNLWEHSSLGTLATLGDAARSDAVLARPGTSHQLGIRVSSGVDPDTPSDLYLAIGADAERGVAHALFWINKPSSSGRLTLRDRDPASPPHVDFNLLSDPRDLQRARVALRTIQRLFKHPVLARYELQLALTPFAVPQPGGPKLETLLADDTALEAYLRQHIGGVWHPSGTCRIGTADDPQAVVDSAGRVHGVEGLRVADASIIPVIPTANTNLPTLMLAEKIADAILGGA
[1]
  Km: 4.8 ± 1.9 mM
  kcat: 0.0167 ± 0.0017 s⁻¹
[2]
  Km: 5.1 ± 1.1 mM
  kcat: 0.238 ± 0.015 s⁻¹
[3]
  Km: 0.8 ± 0.2 mM

B2: MetspHMFO (Methylovorus sp. MP688) (protein)
chain: MTDTIFDYVIVGGGTAGSVLANRLSARPENRVLLIEAGIDTPENNIPPEIHDGLRPWLPRLSGDKFFWPNLTIHRAAEHPGITREPQFYEQGRLLGGGSSVNMVVSNRGLPRDYDEWQALGADGWDWQGVLPYFIKTERDADYGDDPLHGNAGPIPIGRVDSRHWSDFTVAATQALEAAGLPNIHDQNARFDDGYFPPAFTLKGEERFSAARGYLDASVRVRPNLSLWTESRVLKLLTTGNAITGVSVLRGRETLQVQAREVILTAGALQSPAILLRTGIGPAADLHALGIPVLADRPGVGRNLWEHSSIGVVAPLTEQARADASTGKAGSRHQLGIRASSGVDPATPSDLFLHIGADPVSGLASAVFWVNKPSSTGWLKLKDADPFSYPDVDFNLLSDPRDLGRLKAGLRLITHYFAAPSLAKYGLALALSRFAAPQPGGPLLNDLLQDEAALERYLRTNVGGVWHASGTARIGRADDSQAVVDKAGRVYGVTGLRVADASIMPTVPTANTNLPTLMLAEKIADAILTQA
[4]
  Km: 6.8 ± 0.6 mM
  kcat: 0.102 ± 0.0033 s⁻¹
[5]
  Km: 0.5 ± 0.1 mM
  kcat: 19.5 ± 1.33 s⁻¹
Purified protein
  Km: 9.1 ± 0.7 mM
  kcat: 1.38 ± 0.0267 s⁻¹

B3: MetspHMFO^His (Methylovorus sp. MP688) (protein)
chain: MTDTIFDYVIVGGGTAGSVLANRLSARPENRVLLIEAGIDTPENNIPPEIHDGLRPWLPRLSGDKFFWPNLTIHRAAEHPGITREPQFYEQGRLLGGGSSVNMVVSNRGLPRDYDEWQALGADGWDWQGVLPYFIKTERDADYGDDPLHGNAGPIPIGRVDSRHWSDFTVAATQALEAAGLPNIHDQNARFDDGYFPPAFTLKGEERFSAARGYLDASVRVRPNLSLWTESRVLKLLTTGNAITGVSVLRGRETLQVQAREVILTAGALQSPAILLRTGIGPAADLHALGIPVLADRPGVGRNLWEHSSIGVVAPLTEQARADASTGKAGSRHQLGIRASSGVDPATPSDLFLHIGADPVSGLASAVFWVNKPSSTGWLKLKDADPFSYPDVDFNLLSDPRDLGRLKAGLRLITHYFAAPSLAKYGLALALSRFAAPQPGGPLLNDLLQDEAALERYLRTNVGGVWHASGTARIGRADDSQAVVDKAGRVYGVTGLRVADASIMPTVPTANTNLPTLMLAEKIADAILTQA
[6]
  Km: 4.8 ± 1.9 mM
  kcat: 0.0417 ± 0.005 s⁻¹
[7]
  Km: 0.6 ± 0.03 mM
  kcat: 19.83 ± 0.833 s⁻¹
Purified protein
  Km: 6.8 ± 0.8 mM
  kcat: 1.61 ± 0.0633 s⁻¹
